# Laboratory results from US20260167959A1, “APTAZYME-BASED REGULATABLE GENE EXPRESSION SYSTEMS” (REJUVENATE BIO INC, priority 2022, published 2026).
# Substitutions are numbered along the chain they refer to.
# B1: RA394 (nucleic acid)
# DNA: GCGCGTCCTGGATTCGCAGAATACCAGCATCGTCTTGATGCCCTTGGAAGTCTGGAAACGCGTACATCCAGCTGACGAGTCCCAAATAGGACGAAACGCGC
# modifications: expressed or natural sequence
# B2: RA382 (nucleic acid)
# DNA: GCGCGTCCTGGATTCGCGGAAACGCGTACATCCAGCTGACGCCGGAATACCAGCATCGTCTTGATGCCCTTGGAAGTCCGGAGTCCCAAATAGGACGAAACGCGC
# modifications: expressed or natural sequence
# B3: RA399 (nucleic acid)
# DNA: GCGCGTCCTGGATTCGCGGAAACGCGTACATCCACGAGAATACCAGCATCGTCTTGATGCCCTTGGAAGTCTCGGCTGACGAGTCCCAAATAGGACGAAACGCGC
# modifications: expressed or natural sequence
# B4: RA392 (nucleic acid)
# DNA: GCGCGTCCTGGATTCGCGGACGGAATACCAGCATCGTCTTGATGCCCTTGGAAGTCCGAACGCGTACATCCAGCTGACGAGTCCCAAATAGGACGAAACGCGC
# modifications: expressed or natural sequence
# B5: RA406 (nucleic acid)
# DNA: GCGCGTCCTGGATTCGCGGAAACGCGTACATCCAGCTGACGAGTCCCCGGAATACCAGCATCGTCTTGATGCCCTTGGAAGTCCGAAATAGGACGAAACGCGC
# modifications: expressed or natural sequence
# B6: RA403 (nucleic acid)
# DNA: GCGCGTCCTCGGAATACCAGCATCGTCTTGATGCCCTTGGAAGTCCGGGATTCGCGGAAACGCGTACATCCAGCTGACGAGTCCCAAATAGGACGAAACGCGC
# modifications: expressed or natural sequence
# B7: RA384 (nucleic acid)
# DNA: GCGCGTCCTGGATTCGCGGAAACGCGTACATCCAGCTGACGAGTCGAGAATACCAGCATCGTCTTGATGCCCTTGGAAGTCTCCCAAATAGGACGAAACGCGC
# modifications: expressed or natural sequence
# B8: RA397 (nucleic acid)
# DNA: GCGCGTCCTGGATTCGCGGAAACGCGTACATCCAGCTGACGAGTCCCAAATAGGACGAAACGCGCCGGAATACCAGCATCGTCTTGATGCCCTTGGAAGTCCG
# modifications: expressed or natural sequence
# B9: RA388 (nucleic acid)
# DNA: GCGCGTCCTGAGTGATACCAGCATCGTCTTGATGCCCTTGGCAGCACTGATTCGCGGAAACGCGTACATCCAGCTGACGAGTCCCAAATAGGACGAAACGCGC
# modifications: expressed or natural sequence
# B10: RA391 (nucleic acid)
# DNA: GCGCGTCCTGGATTCGCGGAAACGCGTACATCCAGCTGACGAGTCCCAGAGAATACCAGCATCGTCTTGATGCCCTTGGAAGTCTCAATAGGACGAAACGCGC
# modifications: expressed or natural sequence
# B11: RA402 (nucleic acid)
# DNA: GCGCGTCCTGGATTCGAGAATACCAGCATCGTCTTGATGCCCTTGGAAGTCTCGCGCGGAAACGCGTACATCCAGCTGACGAGTCCCAAATAGGACGAAACGCGC
# modifications: expressed or natural sequence
# B12: RA383 (nucleic acid)
# DNA: CGGAATACCAGCATCGTCTTGATGCCCTTGGAAGTCCGGCGCGTCCTGGATTCGCGGAAACGCGTACATCCAGCTGACGAGTCCCAAATAGGACGAAACGCGC
# modifications: expressed or natural sequence
# B13: RA396 (nucleic acid)
# DNA: GCGCGTCCTGGATTCGCGGAAACGCGTACATCCAGCTGCGGAATACCAGCATCGTCTTGATGCCCTTGGAAGTCCGACGAGTCCCAAATAGGACGAAACGCGC
# modifications: expressed or natural sequence
# B14: RA405 (nucleic acid)
# DNA: GCGCGTCCTGGATTCGCGGAAACGCGTACGAGAATACCAGCATCGTCTTGATGCCCTTGGAAGTCTCGCATCCAGCTGACGAGTCCCAAATAGGACGAAACGCGC
# modifications: expressed or natural sequence
# B15: RA395 (nucleic acid)
# DNA: GCGCGTCCTGGATTCGCGGAAACGCGTACATCCAGCTGACGAGTCCCAAATAGGAGAATACCAGCATCGTCTTGATGCCCTTGGAAGTCTCGACGAAACGCGC
# modifications: expressed or natural sequence
# B16: RA390 (nucleic acid)
# DNA: GCGCGTCCGGAATACCAGCATCGTCTTGATGCCCTTGGAAGTCCGGCCTGGATTCGCGGAAACGCGTACATCCAGCTGACGAGTCCCAAATAGGACGAAACGCGC
# modifications: expressed or natural sequence
# B17: RA400 (nucleic acid)
# DNA: GCGCGTCCTGGATTCGCGGAACCGGAATACCAGCATCGTCTTGATGCCCTTGGAAGTCCGGACGCGTACATCCAGCTGACGAGTCCCAAATAGGACGAAACGCGC
# modifications: expressed or natural sequence
# B18: RA385 (nucleic acid)
# DNA: GCGCGTCCTGGATCCGGAATACCAGCATCGTCTTGATGCCCTTGGAAGTCCGGTCGCGGAAACGCGTACATCCAGCTGACGAGTCCCAAATAGGACGAAACGCGC
# modifications: expressed or natural sequence
# B19: RA389 (nucleic acid)
# DNA: GCGCGTCCTGGATTCGCGGAAACGCGTACCGGAATACCAGCATCGTCTTGATGCCCTTGGAAGTCCGATCCAGCTGACGAGTCCCAAATAGGACGAAACGCGC
# modifications: expressed or natural sequence
# B20: RA404 (nucleic acid)
# DNA: GCGCGTCCTGGATTCGCGGAAGGAATACCAGCATCGTCTTGATGCCCTTGGAAGTCCACGCGTACATCCAGCTGACGAGTCCCAAATAGGACGAAACGCGC
# modifications: expressed or natural sequence
# B21: RA381 (nucleic acid)
# DNA: GCGCGTCCTGGATTCGCGGAAACGCGTACATCCAGCTGACGAGTCCCAAATAGGACGAAACGCGCCCGGAATACCAGCATCGTCTTGATGCCCTTGGAAGTCCGG
# modifications: expressed or natural sequence
# B22: RA386 (nucleic acid)
# DNA: GCGCGTCCTGGATTCGCGGAAACGCGTACATCCAGCTGACGGGAATACCAGCATCGTCTTGATGCCCTTGGAAGTCCAGTCCCAAATAGGACGAAACGCGC
# modifications: expressed or natural sequence
# B23: RA387 (nucleic acid)
# DNA: GCGCGTCCTGGATTCGCGGAAACGCGCCGGAATACCAGCATCGTCTTGATGCCCTTGGAAGTCCGGTACATCCAGCTGACGAGTCCCAAATAGGACGAAACGCGC
# modifications: expressed or natural sequence
# B24: RA401 (nucleic acid)
# DNA: GCGCGTCCTGGATTCGCGGAAACGCGCGGAATACCAGCATCGTCTTGATGCCCTTGGAAGTCCGTACATCCAGCTGACGAGTCCCAAATAGGACGAAACGCGC
# modifications: expressed or natural sequence
# B25: RA393 (nucleic acid)
# DNA: GCGCGTCCTGGATTCGCGGAAACGCGTACATCCAGCTGACGAGTCCCAAATAGGCGGAATACCAGCATCGTCTTGATGCCCTTGGAAGTCCGACGAAACGCGC
# modifications: expressed or natural sequence
# B26: RA398 (nucleic acid)
# DNA: GCGCGTCCTGGATTCGCGGACGAGAATACCAGCATCGTCTTGATGCCCTTGGAAGTCTCGAACGCGTACATCCAGCTGACGAGTCCCAAATAGGACGAAACGCGC
# modifications: expressed or natural sequence
# B27: RA038 (nucleic acid)
# DNA: GCGCGTCCTGGATTCGCGGAAACGCGTACATCAGAATACCAGCATCGTCTTGATGCCCTTGGAAGTCTCAGCTGACGAGTCCCAAATAGGACGAAACGCGC
# modifications: expressed or natural sequence
# B28: RA039 (nucleic acid)
# DNA: B27 DNA with A33G, T68C
# modifications: expressed or natural sequence
# Test system: Renilla luciferase RNA
# Assay: Barcoded aptazyme variant library screen: un-cleaved Renilla luciferase RNA by barcode read counts, HEK293-T cells
# Type: cell-based
# Details: un-cleaved Renilla luciferase RNA by barcode read counts; with 1 mM theophylline (ON) over without theophylline (OFF); HEK293-T cells; triplicate
# Summary of the method: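 Barcode sequencing of cDNA versus DNA, normalized per aptazyme, gave the un-cleaved Renilla luciferase RNA fraction and fold-change with versus without theophylline (triplicates). Library: T3H48 ribozyme with one of seven theophylline aptamer variants inserted at each position, placed in the Renilla 3′ UTR of a dual-luciferase vector.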
row,Molecule,Fold change in RNA expression between the ON state and the OFF state
1,B1,0.7
2,B2,0.8
3,B3,0.7
4,B4,0.7
5,B5,0.7
6,B6,0.7
7,B7,0.8
8,B8,0.7
9,B9,0.8
10,B10,0.7
11,B11,0.7
12,B12,0.8
13,B13,0.7
14,B14,0.7
15,B15,0.7
16,B16,0.7
17,B17,0.7
18,B18,0.8
19,B19,0.8
20,B20,0.7
21,B21,0.8
22,B22,0.8
23,B23,0.8
24,B24,0.7
25,B25,0.7
26,B26,0.7

# Same assay, conditions: un-cleaved Renilla luciferase RNA, HEK293-T cells cultured with 1 mM theophylline (ON) over without theophylline (OFF); barcode read counts, triplicate
row,Molecule,Fold change in RNA expression between the ON state and the OFF state
1,B27,2.2 fold
2,B28,2.2 fold
